Measured values reported in the supplement of paper PMC9170038.

Assays:
[1] = test system: MS2 coat protein; experiment: apparent KD of MS2 coat protein, switch ON state; designed switch direction (-1 OFF switch, 1 ON switch): 1; higher = weaker reporter binding; conditions: FMN input: 0 or 200 uM; Eterna round: R93 (includes R88 designs)
Outline: (§1)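 Values are apparent KD, taken as the median for each design of fits to normalised binding curves from individual clusters. The designed RNA switches were transcribed on-chip from Illumina sequencing clusters and exposed to SNAP-549-labelled MS2 coat protein at twofold increasing amounts from 0.7 or 1.5 nM to 3 µM. Titration used 100 mM Tris-HCl pH 7.5, 80 mM KCl and 4 mM MgCl2, without or with constant ligand.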

[2] = test system: MS2 coat protein; experiment: apparent KD of MS2 coat protein, switch OFF state (with FMN for OFF switches, without FMN for ON switches); designed switch direction (-1 OFF switch, 1 ON switch): 1; higher = weaker reporter binding; conditions: FMN input: 0 or 200 uM; Eterna round: R93 (includes R88 designs)
Outline: as §1

| Sequence | apparent KD of MS2 coat protein [1] | apparent KD of MS2 coat protein [2] |
| --- | --- | --- |
| AACAAACAUGAGGAUCACCCAUGUAGAAACAUGGGAGGAUAUACGAAGACGAAAGUCAAAGUAGAAGGCCUAAAAA [Garnet 91] | 0.0691 µM | 0.0609 µM |
| AACAAUCUAUCUGAGGAUAUCAUAUAAAAGACAUGAGGAUCACCCAUGUAGCAGGAAACUGCAUAUGAGAAGGCAGAUAGAUUGA [SS2: 1121] | 0.0075 µM | 0.0108 µM |
| AACAAUCUAUCUGAGGAUAUCAUGACAAAGACAUGAGGAUCACCCAUGUGCAGGAAAACUGCUUAUGAGAAGGCAGAUAGAUUGA [SS2: 1113] | 0.011 µM | 0.0146 µM |
| AACAAUCUAUCUGAGGAUAUCAUGUCAAAGACAUGAGGAUCACCCAUGUACCAGGAAACUGGUUAUGAGAAGGCAGAUAGAUUGA [SS2: 1115] | 0.0373 µM | 1.29 µM |
| AACAAUCUAUCUGAGGAUAUCAUUAAAAAGACAUGAGGAUCACCCAUGUAGCAGGAAACUGCAUAUGAGAAGGCAGAUAGAUUGA [SS2: 1123] | 0.0125 µM | 0.0139 µM |
| AACAAUCUAUCUGAGGAUAUCAUUUCAAAGACAUGAGGAUCACCCAUGUGCAGGAAAACUGCAAAUGAGAAGGCAGAUAGAUUGA [SS2: 1107] | 0.0103 µM | 0.0145 µM |
| AACAAUCUAUCUGAGGAUAUGAUGUCAAAGACAUGAGGAUCACCCAUGUGCAGGAAAACUGCAUAUCAGAAGGCAGAUAGAUUGA [SS2: 1103] | 0.0156 µM | 0.0184 µM |
| AACAAUCUAUCUGAGGAUAUGUGUCAAAAGACAUGAGGAUCACCCAUGUAAAAACAUGAAAAAACACAGAAGGCAGAUAGAUUGA [SS2: 1148] | 0.0418 µM | 0.0593 µM |
| AACAAUCUAUCUGAGGAUAUGUGUCAAAAGACAUGAGGAUCACCCAUGUAAAAACAUGGGAAAACACAGAAGGCAGAUAGAUUGA [SS2: 1151] | 0.369 µM | 0.184 µM |
| AACAAUCUAUCUGAGGAUAUGUGUCGAAAGACAUGAGGAUCACCCAUGUCAAAACAUGGAAAGAUACAGAAGGCAGAUAGAUUGA [SS2: 1158] | 0.00833 µM | 0.0119 µM |
| AACAAUCUAUCUGAGGAUAUGUGUCGAAAGACAUGAGGAUCACCCAUGUCAAAACAUGGGAAGAUACAGAAGGCAGAUAGAUUGA [SS2: 1159] | 0.0799 µM | 0.417 µM |
| AACAAUCUAUCUGAGGAUAUGUGUCGAAAGACAUGAGGAUCACCCAUGUGAAAACAUGAAAAAUCACAGAAGGCAGAUAGAUUGA [SS2: 1143] | 0.0458 µM | 0.146 µM |
| AACAGACAUGAGGAUCACCCAUGUAGAAUUAUGGGAGGAUAUACAAAGACGAGAGUCAGAGUAGAAGGCCUAGGAG [salish99-ss1-162] | 0.0221 µM | 0.0443 µM |
| AACUACAUUAUGAAGGAUAUCCGCGUCUAGACAUGAGGAUCACCCAUGUAUACUUGGAUCAUGCAGGAGAAGGUCAAGGGUGAUU [JR_SS002_Sub1209] | 0.178 µM | 0.122 µM |
| AAGAAACAUGAGGAUCACCCAUGUAAACUCGAGAGAGGAUAUCGUACAUGGAAGAUUCAACGAGAAGGCUCUAGAG [Same State 1.1a (Pariah 3, G boost at 31, GC 76/28)] | 0.0238 µM | 0.0415 µM |
| AAGAAACAUGAGGAUCACCCAUGUAAGAAUAUGGGAGGAUAUACAAGGACAAGAGUCAAGGUAGAAGGCCUAAGAA [Mat - Same State 1 - Meechl mod - D143] | 0.033 µM | 0.118 µM |
| AAGAAACAUGAGGAUCACCCAUGUACCCAAAAGCGAGGAUAUGGGAAAGAAAGAAAGAAACCAGAAGGCGCAUGAA [Darius II] | 0.02 µM | 0.0355 µM |
| AAGAAACAUGAGGAUCACCCAUGUGAGAUAAACACAGGAUAUGCGAAAAGAAACAAAGAAGCAGAAGGGUGAAGAA [Mat - Same State 1 - Tesla mod - 55] | 0.0349 µM | 0.126 µM |
| AAGACACAUGAGGAUCACCCAUGUCAAGAGAGAUGAGGAUAUCUGAGUUAGUUAAGUUAAGGAGAAGGCAUGAAAA [LROPPY Same State 1 - v01_deltaG=3.81] | 0.031 µM | 0.0594 µM |
| AAUAAACAUGAGGAUCACCCAUGUACCGACCACUAAGGAUAUGGGCGAAUAACAGCUCGGCCAGAAGGUAGAGGUG [Gebimarabi] | 0.0467 µM | 0.0625 µM |
| AAUAAACAUGAGGAUCACCCAUGUCUUUUACAUCAAGGAUAUGGGAUCGGAAAUCCGACACCAGAAGGUGAGUAGA [Userra] | 0.157 µM | 0.3 µM |
| AAUAAUUAUAUGGAGGAUAUCCGUAAUAAGACAUGAGGAUCACCCAUGUAAUAAGGGUAAAUAAAGGAGAAGGCCAAGGGUGAAA [JR_SS002_Sub003] | 0.0984 µM | 0.184 µM |

| Sequence | apparent KD of MS2 coat protein [1] | apparent KD of MS2 coat protein [2] |
| --- | --- | --- |
| AAUACACAUAGUCAGGAUAUCAAAACUAAGACAUGAGGAUCACCCAUGUAAUAAGUAAAAGUAAAUGAGAAGGGACAGGGUGACC [JR_SS002_Sub404] | 0.13 µM | 0.0639 µM |
| AAUAUACAUGAGGAUCACCCAUGUUUUAAUAACUGAGGAUAUACGGGUGAAAACAGCAUAGUAGAAGGCAGAAAAA [SameState1 Malc#5] | 0.0422 µM | 0.0891 µM |
| AAUAUACAUGAGGAUCACCCAUGUUUUAAUAGUUGAGGAUAUACGGGUGAAAAUAGCAUAGUAGAAGGCGAGUGUA [SameState1 Malc#12] | 0.146 µM | 0.106 µM |
| AAUAUAUUAAGUGAGGAUAUCGAAGAAAAAACAUGAGGAUCACCCAUGUGGGAAACCUGGUCGGGUGAGAAGGCACUUAAUAUAU [Samwise Clockwise 27 - Jieux - Same State 2] | 0.0455 µM | 0.0854 µM |
| AAUCCAAAUAGUCAGGAUAUCAAAAAUAAGACAUGAGGAUCACCCAUGUACUUAGUAAAAGUAAAUGAGAAGGGACAGGGUGAAA [JR_SS002_Sub403] | 0.0214 µM | 0.0294 µM |
| AAUCCAACUAGUCAGGAUAUCAGGCGUAAGACAUGAGGAUCACCCAUGUCCUAAGAACAAGUAACUGAGAAGGGACAGGGCGACC [JR_SS002_Sub411] | 0.0576 µM | 0.062 µM |
| ACAAACAAAAAAGAGGAUAUCCUAAAUAAAACAUGAGGAUCACCCAUGUAAAAAAUAAUAAAAUGGGAGAAGGCUUACAACAAAC [SS2 M 24] | 0.0156 µM | 0.021 µM |
| ACAAACAAAAGAGAGGAUAUCCAAAAGAAAACAUGAGGAUCACCCAUGUGAAAGAAAAUAAAAUGGGAGAAGGCUCAGAACAACA [Topaz 28] | 0.0292 µM | 0.0462 µM |
| ACAAAGCUACACUAGGAUAUGGGUGUCUAAACAUGAGGAUCACCCAUGUGAUGGCAAAACAAAGCUCAGAAGGAGUCGUAGCCCA [Bientevece] | 0.015 µM | 0.0349 µM |
| ACCCGACAUGAGGAUCACCCAUGUAAACAAUCAUGAGGAUAUCCGGAGCAAAUGCUCAAGGGAGAAGGCAUAAAAG [Onrequus] | 0.0295 µM | 0.132 µM |
| ACUACACAUGAGGAUCACCCAUGUCAGGUCGGACUAGGAUAUUAUAAACCAGAGUAAAAAUAAGAAGGAGUAGAAA [JR_SS001_Sub309] | 0.0379 µM | 0.0299 µM |
| ACUAUACAUGAGGAUCACCCAUGUCAGGUGGGACUAGGAUAUCAAAAGCCAGAGUAAGAAUGAGAAGGAGUAGAAA [JR_SS001_Sub304] | 0.0664 µM | 0.0693 µM |
| AGAAAACAUGAGGAUCACCCAUGUAGGAAUAUGGGAGGAUAUACAGAGACGAAAGUCAGAGUAGAAGGCCUAAGAA [salish99-SS1-088] | 0.024 µM | 0.0967 µM |
| AGAAAACAUGAGGAUCACCCAUGUGAUAACAUGGGAGGAUAUACGAGGACGAGAGUCAAGGUAGAAGGCCUAAAGA [Garnet 72] | 0.111 µM | 0.114 µM |
| AGAAAUAAAAGAGAGGAUAUCCAAAAGGGAACAUGAGGAUCACCCAUGUAAAUGAAAAUAAAAUGGGAGAAGGCUCAAAAUAAAG [80% More Helter Skelter 2] | 0.0546 µM | 0.085 µM |
| AGAAGGUGGGUCGAGGAUAUCAGGCACGCCACAUGAGGAUCACCCAUGUUUUUGGCACCGCCCAAUGAGAAGGUGAACACCUUCA [Cesobe] | 0.00934 µM | 0.0124 µM |
| AGAAUAAAAAGACAGGAUAUCCAAAAUAAAACAUGAGGAUCACCCAUGUAAAAAAAAUAAAAAUGGGAGAAGGGUCAAAAUAAGA [Mat - Same State 2 - JL mod - D63] | 0.0188 µM | 0.0319 µM |
| AGAGAUAACAGAGAGGAUAUCCAAUAGAAAACAUGAGGAUCACCCAUGUGAAAGAUAAUAAAAUGGGAGAAGGCUCACAAUAAGA [Topaz 42] | 0.0158 µM | 0.0398 µM |
| AGCCAACAUGAGGAUCACCCAUGUCAAACAAGUCAAGGAUAUGGGCCUCUAAAAGGAGUACCAGAAGGUGAGAAAU [Vequatge] | 0.123 µM | 0.0527 µM |
| AGCUAACAUGAGGAUCACCCAUGUCCGCUAAACCAAGGAUAUGGGACGAAUAAAAUCGGACCAGAAGGUGGCCGAC [Qureaed] | 0.218 µM | 0.222 µM |
| AGGAAACAUGAGGAUCACCCAUGUAAAAAUAUGGGAGGAUAUACAAAGACGAAAGUGAGAGUAGAAGGCCUAAAAG [Garnet 18] | 0.0356 µM | 0.124 µM |
| AGGAAACAUGAGGAUCACCCAUGUAAAGAAGGGUGAGGAUAUACAAAGAAAAGAAAGAAAGUAGAAGGCACAAAAG [Mongoose] | 0.233 µM | 0.113 µM |
